Assay results taken from US20160166636A1.
Square brackets hold non-standard residues; d marks the D form. Ends that are not written are not given here. Met(O) = CS(=O)CC[C@H](N)C(=O)O; pS = N[C@@H](COP(=O)(O)O)C(=O)O

Columns and labels:
[1] = molecular target: Recombinant bovine HSC70 (Stressgen) (bovine) (UniProt P19120); experiment: SPR Biacore 3000, HSC70 immobilised, peptide analyte at 12.5 uM, 1:1 Langmuir fit
[2] = molecular target: Recombinant bovine HSC70 (Stressgen) (bovine) (UniProt P19120); experiment: SPR Biacore 3000, HSC70 immobilised on CM5, peptide as analyte 1.56-25 uM, 1:1 Langmuir global fit, 25 C
[3] = molecular target: Recombinant bovine HSC70 (Stressgen) (bovine) (UniProt P19120); experiment: SPR Biacore 3000, HSC70 immobilised, peptide analyte at 6.25 uM, 1:1 Langmuir fit
[4] = molecular target: Recombinant bovine HSC70 (Stressgen) (bovine) (UniProt P19120); experiment: SPR Biacore 3000, HSC70 immobilised, peptide analyte at 1.56 uM, 1:1 Langmuir fit
[5] = molecular target: Recombinant bovine HSC70 (Stressgen) (bovine) (UniProt P19120); experiment: SPR Biacore 3000, HSC70 immobilised, peptide analyte at 25 uM, 1:1 Langmuir fit
[6] = molecular target: Recombinant bovine HSC70 (Stressgen) (bovine) (UniProt P19120); experiment: SPR Biacore 3000, HSC70 immobilised, peptide analyte at 3.12 uM, 1:1 Langmuir fit

Recombinant bovine HSC70 (Stressgen) (bovine), sequence (P19120 whole entry): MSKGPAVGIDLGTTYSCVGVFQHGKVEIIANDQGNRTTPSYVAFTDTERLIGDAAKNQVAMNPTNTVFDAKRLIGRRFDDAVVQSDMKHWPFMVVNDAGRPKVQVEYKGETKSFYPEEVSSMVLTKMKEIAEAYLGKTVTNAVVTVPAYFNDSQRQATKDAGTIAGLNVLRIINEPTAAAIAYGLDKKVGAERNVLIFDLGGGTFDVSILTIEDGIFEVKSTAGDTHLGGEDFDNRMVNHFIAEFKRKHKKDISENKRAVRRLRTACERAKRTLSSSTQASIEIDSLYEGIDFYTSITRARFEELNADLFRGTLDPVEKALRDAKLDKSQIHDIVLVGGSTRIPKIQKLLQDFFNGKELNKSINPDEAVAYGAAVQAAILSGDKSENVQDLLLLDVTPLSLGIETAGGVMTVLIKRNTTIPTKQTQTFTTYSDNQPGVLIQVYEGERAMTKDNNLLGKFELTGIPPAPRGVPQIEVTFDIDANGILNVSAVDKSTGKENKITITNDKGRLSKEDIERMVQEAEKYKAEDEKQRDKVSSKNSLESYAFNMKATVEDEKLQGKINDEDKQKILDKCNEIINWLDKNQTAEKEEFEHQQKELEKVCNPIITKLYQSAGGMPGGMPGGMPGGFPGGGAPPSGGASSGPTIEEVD

| Ka [1] [M⁻¹] | Kd [1] [µM] | Req [1] [RU] | kobs [1] [s⁻¹] | koff [1] [s⁻¹] | kon [2] [M⁻¹ s⁻¹] | Ka [3] [M⁻¹] | Kd [3] [µM] | Req [3] [RU] | kobs [3] [s⁻¹] | koff [3] [s⁻¹] | Ka [4] [M⁻¹] | Kd [4] [µM] | Req [4] [RU] | kobs [4] [s⁻¹] | koff [4] [s⁻¹] | Ka [5] [M⁻¹] | Kd [5] [µM] | Req [5] [RU] | kobs [5] [s⁻¹] | Binder | other results |
| --- | --- | --- | --- | --- | --- | --- | --- | --- | --- | --- | --- | --- | --- | --- | --- | --- | --- | --- | --- | --- | --- |
| 144000 | 6.94 | 53.6 | 0.00874 | 0.00312 | 450 | 144000 | 6.94 | 39.5 | 0.00593 | 0.00312 | 144000 | 6.94 | 15.3 | 0.00382 | 0.00312 | 144000 | 6.94 | 65.2 | 0.0144 | RIHMVYSKR[pS]GKPRGYAFIEY [P140 peptide (peptide consisting of SEQ ID NO: 1 in which serine at position 10 is phosphorylated)] | koff [5]: 0.00312 s⁻¹; Ka [6]: 144000 M⁻¹; Kd [6]: 6.94 µM; Req [6]: 25.8 RU; kobs [6]: 0.00452 s⁻¹; koff [6]: 0.00312 s⁻¹ |
| 524000 | 1.91 | 33.9 | 0.0166 | 0.0022 | 1150 | 524000 | 1.91 | 29.9 | 0.0094 | 0.0022 | 524000 | 1.91 | 17.6 | 0.004 | 0.0022 | 524000 | 1.91 | 36.3 | 0.031 | RIH[Met(O)]VYSKR[pS]GKPRGYAFIEY | koff [5]: 0.0022 s⁻¹; Ka [6]: 524000 M⁻¹; Kd [6]: 1.91 µM; Req [6]: 24.2 RU; kobs [6]: 0.0058 s⁻¹; koff [6]: 0.0022 s⁻¹ |
